Laboratory results taken from patent publication US20170313754A1 (PROTAGONIST THERAPEUTICS, published 2017).
Numbered stars: 1 amine (or outer) side, 2 acyl side, 3 side chain; on linkers, the order of the positions; unused ones are H or OH. Bridge positions count the residues as written; N and C are the ends. Square brackets hold non-standard residues; d marks the D form. Ends that are not written are not given here. * marks the point of attachment. IDA = iminodiacetic acid, O=C(CN(CC(=O)[*:3])[*:1])[*:2]; Palmitoyl = CCCCCCCCCCCCCCCC(=O)*; β3hF = N[C@H](CC(=O)O)Cc1ccccc1; pGlu = O=C1CC[C@@H](C(=O)O)N1; β3hP = O=C(O)C[C@@H]1CCCN1; Isovaleryl = CC(C)CC(=O)*

T1: human ferroportin (SLC40A1) fused in frame with GFP, stably expressed on HEK293 cells (human, UniProt Q9NP59 1-571)
T1 sequence (looked up): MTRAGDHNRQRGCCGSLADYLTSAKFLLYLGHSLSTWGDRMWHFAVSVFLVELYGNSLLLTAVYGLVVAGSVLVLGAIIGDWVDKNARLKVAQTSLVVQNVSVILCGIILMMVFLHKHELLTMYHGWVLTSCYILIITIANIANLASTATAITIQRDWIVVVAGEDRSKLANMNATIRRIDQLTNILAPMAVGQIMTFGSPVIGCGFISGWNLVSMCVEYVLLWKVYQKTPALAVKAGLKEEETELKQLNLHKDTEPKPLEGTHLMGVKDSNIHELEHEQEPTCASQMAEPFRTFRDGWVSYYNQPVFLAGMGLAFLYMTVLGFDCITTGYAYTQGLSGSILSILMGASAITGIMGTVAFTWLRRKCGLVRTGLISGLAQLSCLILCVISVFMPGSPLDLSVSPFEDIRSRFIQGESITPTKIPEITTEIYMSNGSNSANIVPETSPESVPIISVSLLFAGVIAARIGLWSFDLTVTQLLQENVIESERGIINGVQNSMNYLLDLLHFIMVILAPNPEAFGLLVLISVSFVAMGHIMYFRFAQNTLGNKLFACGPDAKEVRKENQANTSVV

T2: human ferroportin (SLC40A1) fused in frame with GFP, stably expressed in HEK293 cells (human, UniProt Q9NP59 1-571)
T2 sequence (looked up): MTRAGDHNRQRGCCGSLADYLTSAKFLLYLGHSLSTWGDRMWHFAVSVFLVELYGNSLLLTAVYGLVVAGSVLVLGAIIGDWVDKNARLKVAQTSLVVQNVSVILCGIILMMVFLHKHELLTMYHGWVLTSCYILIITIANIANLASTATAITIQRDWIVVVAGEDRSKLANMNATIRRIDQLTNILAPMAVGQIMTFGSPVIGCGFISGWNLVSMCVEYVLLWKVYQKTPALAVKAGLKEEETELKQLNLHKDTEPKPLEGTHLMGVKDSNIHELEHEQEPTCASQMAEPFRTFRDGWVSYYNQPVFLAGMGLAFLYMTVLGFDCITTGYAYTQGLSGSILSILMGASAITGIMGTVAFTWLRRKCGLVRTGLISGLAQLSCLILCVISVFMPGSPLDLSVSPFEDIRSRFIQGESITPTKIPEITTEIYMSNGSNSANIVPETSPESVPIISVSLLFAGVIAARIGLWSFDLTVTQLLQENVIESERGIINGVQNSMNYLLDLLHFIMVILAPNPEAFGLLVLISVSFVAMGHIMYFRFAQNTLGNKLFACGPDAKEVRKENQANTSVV


molecular target: T1, human ferroportin (SLC40A1) fused in …; test: cell-based or functional assay

Binder	percent at the stated concentration, ferroportin internalization/degradation assay	EC50 (nM), ferroportin internalization/degradation assay
H-DTHFPRRFGPRSKGWVC-NH2 [Hy-DTHFPRRFGPRSKGWVC-NH2]		> 1000 nM
H-DTHFPCVIF-NH2 [Hy-DTHFPCVIF-NH2]	81 % at 10 uM	
H-DTHFPCIFGPRSKGWVC-NH2 (disulfide 6-17 (inferred)) [Hy-DTHFPCIFGPRSKGWVC-NH2]		> 1000 nM
H-DTHFPCAIF-NH2 [Hy-DTHFPCAIF-NH2]		> 1000 nM
H-DTHFPCRIF-NH2 [Hy-DTHFPCRIF-NH2, listing 2 of 2 here]		> 1000 nM
H-DTHFPCLF-NH2 [Hy-DTHFPCLF-NH2]	39 % at 1 uM	
H-DTHFPCRIFGPRSRGWVCK-NH2 (disulfide 6-18 (inferred)) [Hy-DTHFPCRIFGPRSRGWVCK-NH2]		> 1000 nM
Isovaleryl-DTHFPCRRFGPRSKGWVCK-NH2 (disulfide 6-18 (inferred)) [Isovaleric acid-DTHFPCRRFGPRSKGWVCK-NH2]		> 1000 nM
H-DTHFPCLIF-NH2 [Hy-DTHFPCLIF-NH2]		> 10000 nM

Second part, the binder after the results:

percent at the stated concentration, ferroportin internalization/degradation assay	EC50 (nM), ferroportin internalization/degradation assay	Binder
31 % at 10 uM		H-DTHFPCRIF-NH2 [Hy-DTHFPCRIF-NH2, listing 1 of 2 here]
	> 1000 nM	[pGlu]THFPCRKF-NH2 (SMILES C[C@@H](O)[C@H](NC(=O)[C@@H]1CCC(=O)N1)C(=O)N[C@@H](Cc1c[nH]cn1)C(=O)N[C@@H](Cc1ccccc1)C(=O)N1CCC[C@H]1C(=O)N[C@@H](CS)C(=O)N[C@@H](CCCNC(=N)N)C(=O)N[C@@H](CCCCN)C(=O)N[C@@H](Cc1ccccc1)C(N)=O) [Hy-[pGlu]-THFPCRKF-NH2]
9 % at 10 uM		H-DTHFPCKIF-NH2 [Hy-DTHFPCKIF-NH2]
	> 10000 nM	H-DTHFPCRRF-NH2 [Hy-DTHFPCRRF-NH2]
	> 1000 nM	[IDA]THF[β3hP]CRR[β3hF]GPRSKGWVC-NH2 (disulfide 6-18 (inferred)) [[IDA]-THF-[bhPro]-CRR-[bhPhe]GPRSKGWVC-NH2]
	> 1000 nM	H-DTHFPCEIF-NH2 [Hy-DTHFPCEIF-NH2]
	> 1000 nM	H-DTHFPCQIF-NH2 [Hy-DTHFPCQIF-NH2]
31 % at 10 uM		H-DTHFPCRF-NH2 [Hy-DTHFPCRF-NH2]

molecular target: T1, human ferroportin (SLC40A1) fused in …; test: cell-based or functional assay; remark: another data set of the same source

EC50 (nM) (n > 3), ferroportin internalization/degradation assay	Binder
4 nM	Isovaleryl-DTHFPCIRFK-{K(γGlu-Palm)-NH2} (also: dimer: two subunits joined at C-termini through a Lys linker) [(Isovaleric acid-DTHFPCIRF)2[Lys]-K(iso-Glu-Palm)-NH2]
24 nM	DTHFPCIKF (N-terminal isobutyric acid on each subunit; the two subunits are joined at their C-termini through a [Lys] linker, which is followed by K(iso-Glu-Palm)-NH2) [(isobutyric acid-DTHFPCIKF)2[Lys]K(iso-Glu-Palm)-NH2]
14 nM	DTHFPCIKF (N-terminal isovaleric acid on each subunit; the two subunits are joined at their C-termini through a [Lys] linker, which is followed by K(iso-Glu-Palm)-NH2) [(isovaleric acid-DTHFPCIKF)2[Lys]K(iso-Glu-Palm)-NH2]

molecular target: T1, human ferroportin (SLC40A1) fused in …; test: cell-based or functional assay; remark: another data set of the same source

EC50 (nM) (n > 3), ferroportin internalization/degradation assay	Binder
4 nM	Isovaleryl-DTHFPCIRFK-{K(γGlu-Palm)-NH2} (also: dimer: two subunits joined at C-termini through a Lys linker) [(Isovaleric acid-DTHFPCIRF)2[Lys]-K(iso-Glu-Palm)-NH2]
24 nM	DTHFPCIKF (N-terminal isobutyric acid on each subunit; the two subunits are joined at their C-termini through a [Lys] linker, which is followed by K(iso-Glu-Palm)-NH2) [(isobutyric acid-DTHFPCIKF)2[Lys]K(iso-Glu-Palm)-NH2]
16 nM	DTHFPCIKF (N-terminal isovaleric acid on each subunit; the two subunits are joined at their C-termini through a [Lys] linker, which is followed by Lys(Palm)-NH2) [(Isovaleric acid-DTHFPCIKF)2[Lys]-Lys(Palm)-NH2]
14 nM	DTHFPCIKF (N-terminal isovaleric acid on each subunit; the two subunits are joined at their C-termini through a [Lys] linker, which is followed by K(iso-Glu-Palm)-NH2) [(isovaleric acid-DTHFPCIKF)2[Lys]K(iso-Glu-Palm)-NH2]

molecular target: T2, human ferroportin (SLC40A1) fused in …; test: cell-based or functional assay

Potency EC50	Binder
1 nM	Isovaleryl-DTHFPCIKFGPRSK(Palmitoyl)GWVCK-NH2 (disulfide 6-18 (inferred)) [Isovaleric acid-DTHFPCIKFGPRS-K(Palm)-GWVCK-NH2]
> 500 nM	DTHFPCIKFKPRSKGWVCK (IVA (isovaleric acid) on the side chain of Lys 10; C-terminal amide) [Hy-DTHFPCIKF-K(IVA)-PRSKGWVCK-NH2]
> 500 nM	H-DTHFPCIK(Isovaleryl)FGPRSKGWVCK-NH2 (disulfide 6-18 (inferred)) [Hy-DTHFPCI-K(IVA)-FGPRSKGWVCK-NH2]

molecular target: T1, human ferroportin (SLC40A1) fused in …; test: cell-based or functional assay; remark: another data set of the same source

Binder	Ferroportin internalization assay EC50	percent at the stated concentration, ferroportin internalization assay
H-DTHFPCIIFGPRSRGHVCK-NH2 (not fully specified (bridges); printed as Hy-DTHFPCIIFGPRSRGHVCK-NH2; cysteine pairing not given here) [Hy-DTHFPCIIFGPRSRGHVCK-NH2]	> 1000 nM	
Isovaleryl-DTHFECIIFGPRSKGWVCK-NH2 (not fully specified (bridges); cysteine pairing not given here) [Isovaleric acid-DTHFECIIFGPRSKGWVCK-NH2]	> 1000 nM	
H-DTHFPCIEY-NH2 [Hy-DTHFPCIEY-NH2]		8 % at 1 uM
H-DTHFPCIDFGPRSKGWVCK-NH2 (disulfide 6-18 (inferred)) [Hy-DTHFPCIDFGPRSKGWVCK-NH2]	> 1000 nM	
Isovaleryl-DTHFGCIKFEPRSKEWVCK-NH2 (not fully specified (bridges); cysteine pairing not given here) [Isovaleric acid-DTHFGCIKFEPRSKEWVCK-NH2]	> 1000 nM	
Isovaleryl-DTEFPCIKFEPRSKEWVCK-NH2 (disulfide 6-18 (inferred)) [Isovaleric acid-DTEFPCIKFEPRSKEWVCK-NH2]	> 1000 nM	
H-DTHFPCIIY-NH2 [Hy-DTHFPCIIY-NH2]		75 % at 10 uM
H-DTHKPCIIF-NH2 [Hy-DTHKPCIIF-NH2]		45 % at 10 uM
H-ADHFPCIIF-NH2 [Hy-ADHFPCIIF-NH2]	> 1000 nM	
DTHFPCIIFXPHSKGWVC (N-terminal isovaleric acid; Sarc at 10; N-MeTrp at 16; C-terminal amide) [Isovaleric acid-DTHFPCIIF-[Sarc]-PHSKG[N-MeTrp]-VC-NH2]	9 nM	
H-ATHFPCIIF-NH2 [Hy-ATHFPCIIF-NH2]	> 1000 nM	

More lines, now with the values ahead:

Ferroportin internalization assay EC50	percent at the stated concentration, ferroportin internalization assay	Binder
> 1000 nM		H-DTHFPCINFGPRSKGWVCK-NH2 (disulfide 6-18 (inferred)) [Hy-DTHFPCINFGPRSKGWVCK-NH2]
10 nM		DTHFPCIIFXPRSKGWVC (N-terminal isovaleric acid; Sarc at 10; N-MeTrp at 16; C-terminal amide) [Isovaleric acid-DTHFPCIIF-[Sarc]-PRSKG[N-MeTrp]-VC-NH2]
> 1000 nM		H-DTHFPCIIFAC-NH2 (disulfide 6-11 (inferred)) [Hy-DTHFPCIIFAC-NH2]
	85 % at 1 uM	H-DTHFPCILY-NH2 [Hy-DTHFPCILY-NH2]
	64 % at 10 uM	H-DPHFPCIIF-NH2 [Hy-DPHFPCIIF-NH2]
	59 % at 1 uM	H-DTHFPCIIFAA-NH2 [Hy-DTHFPCIIFAA-NH2]
	23 % at 1 uM	H-DTHFPCIIT-NH2 [Hy-DTHFPCIIT-NH2]
> 1000 nM		H-DTHFPCIIFGPRSKGWNCK-NH2 (not fully specified (bridges); printed as Hy-DTHFPCIIFGPRSKGWNCK-NH2; cysteine pairing not given here) [Hy-DTHFPCIIFGPRSKGWNCK-NH2]
	50 % at 10 uM	H-DTHFVCIIF-NH2 [Hy-DTHFVCIIF-NH2]
